Target: MelA1 (Candidatus Melainabacteria bacterium isolate SJ512)
Assay: SEC; size-exclusion chromatography of MelA1; column and buffer not told

- stoichiometry N: 2
Substance: MelA1 (natural protein)

Reference: article doi:10.1101/2025.10.31.685832
